Source: the supplement of paper PMC10724198
± gives the standard deviation of the averaged measurements.

system: Saccharomyces cerevisiae; assay: protein stability index of tFT-peptide fusion (C-terminal peptide) (PSI (0-1 scale)); higher = more stable (slower turnover); conditions: genetic background: cdc53-1; temperature: 37 C
Experimental: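 MPS profiling in S. cerevisiae of the tFT-X12 degron library: putative degron peptides plus stable controls, 12 aa, fused to the C-terminus of a sfGFP-mCherry timer. Cells are FACS-sorted into 8 mCherry/sfGFP bins and deep-sequenced. PSI runs from 0 (unstable) to 1 (stable). Backgrounds are wild type, das1Δ and doa10Δ at 30 °C, and wild type, das1Δ, cdc34-1 and cdc53-1 at 37 °C; 2-3 technical replicates each.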
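Further: PSI is a weighted mean of sequencing reads over stability bins, variants kept only with over 10 reads, mCherry proximal and sfGFP distal, peptide attached via GGGS linker.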

Sequence	protein stability index
NCVDRFKGQKRM	0.723 ± 0.029
NFFIQFHNLLFP	0.765 ± 0.037
NGLVCVFILSWY	0.261 ± 0.1
NLFVFLSYLFNV	0.66 ± 0.0075
NLVCLDPFLVFV	0.612 ± 0.011
NMVSMVVVIFGV	0.37 ± 0.1
NNQIQKKMYQTN	0.778 ± 0.018
NWAIEIRSVKIV	0.701 ± 0.022
NYCVFLSYLLFC	0.424 ± 0.025
NYFRPWLIFHKC	0.749 ± 0.012
PALPQPMNPAPP	0.722 ± 0.0094
PALVVALLASVL	0.646 ± 0.039
PCLPLTPMWTLF	0.789 ± 0.021
PFFVLFSLAFLF	0.439 ± 0.033
PLATSLIGLFVV	0.716 ± 0.013
PLLLFFFPRLLF	0.62 ± 0.025
PLLPTPLTAPPP	0.73469 ± 0.00013
PLLSATLTRRLA	0.665 ± 0.0088
PLTSPLLFPVFA	0.338 ± 0.029
PPPLPFPTPPPS	0.764 ± 0.041
PPSLPPLISFSP	0.7808 ± 0.0052
PPSRSPLPPLLH	0.729 ± 0.024
PPTPYPRFIFSF	0.7541 ± 0.0012
PPVPRLLPVLAP	0.503 ± 0.015
PRIVLFLRLHSN	0.651 ± 0.042
PRPETCHAVAVR	0.588 ± 0.037

Sequence	protein stability index
PRPLLSIYLRHA	0.666 ± 0.014
PRQPSKSNASNR	0.7277 ± 0.00076
PSIALVRLDVIC	0.471 ± 0.0073
PSPFHSFYLRLI	0.643 ± 0.009
PSPPPYAPPIPA	0.611 ± 0.055
PSSPTPPPSSSP	0.726 ± 0.011
PSSVKLRVPSLY	0.762 ± 0.033
PTPSRPPHPPLR	0.752 ± 0.05
PVALYPVQAYLT	0.71 ± 0.025
PVFVLFFFSSLV	0.533 ± 0.0086
PVLIFTWVIVCH	0.0674 ± 0.026
PVLPPPLLLCPC	0.0268 ± 0.011
PWEYSSQLVLVI	0.0865 ± 0.011
QCRLPRPPLSLP	0.7414 ± 0.0062
QPTGYFKLIIIK	0.393 ± 0.072
QPTPQSALAKHQ	0.721 ± 0.04
RASLPSLFRSLL	0.913 ± 0.048
RAVLRFVMVWVL	0.611 ± 0.024
RCTLFVNPVCVH	0.304 ± 0.008
RGFIFFALWSFC	0.544 ± 0.021
RGFVVFCIPCFV	0.326 ± 0.021
RGKVVRGLLFCA	0.7188 ± 0.0062
RGPAYATCHLLC	0.7316 ± 0.0053
RIAIRSAVICAS	0.379 ± 0.0076
RIIKIRAISINL	0.66 ± 0.065
RILKLPGHVNDV	0.711 ± 0.031

Sequence	protein stability index
RIRLYWVLRRLG	0.693 ± 0.013
RISGSIVVRKRS	0.738 ± 0.011
RLPRILVLVCLF	0.318 ± 0.025
RLPSSNVRYWVS	0.729 ± 0.012
RNDCAYHVLQIV	0.722 ± 0.054
RNTLLFKRILHI	0.706 ± 0.017
RPPSLVFLFLLT	0.587 ± 0.021
RRGGNIVWYCLV	0.694 ± 0.015
RRIILAGLFLIS	0.613 ± 0.029
RRMGLRLFLLWM	0.657 ± 0.0097
RSAVECRVTNIR	0.7227 ± 0.00094
RSFSKRSFMFLC	0.728 ± 0.11
RSNLSKSWHRIG	0.689 ± 0.014
RTMLSNRIKSFI	0.701 ± 0.038
RVRRETRLRQIA	0.732 ± 0.043
RVVNRWGVCFLG	0.7178 ± 0.0067
RVWTTVFIIRAT	0.609 ± 0.055
RYLHFASLLFAS	0.709 ± 0.0084
SDVLVVWVFFCR	0.4196 ± 0.0033
SELLVHVVFWLA	0.438 ± 0.038
SFAVSSDYLFII	0.788 ± 0.028
SFCSFVFVTFVL	0.4842 ± 0.0023
SFFCFFLSFFYL	0.53 ± 0.0091
SFFSQAIPILAA	0.039 ± 0.0039
SFLCILIFPFFP	0.6 ± 0.015
SFSFRPCLLLFF	0.355 ± 0.0074

same assay, conditions: genetic background: das1 deletion; temperature: 30 C

Sequence	protein stability index
NCVDRFKGQKRM	0.64 ± 0.027
NFFIQFHNLLFP	0.664 ± 0.0089
NGLVCVFILSWY	0.234 ± 0.038
NLFVFLSYLFNV	0.563 ± 0.013
NLVCLDPFLVFV	0.478 ± 0.018
NMVSMVVVIFGV	0.23 ± 0.039
NNQIQKKMYQTN	0.667 ± 0.019
NWAIEIRSVKIV	0.619 ± 0.04
NYCVFLSYLLFC	0.318 ± 0.027
NYFRPWLIFHKC	0.632 ± 0.05
PALPQPMNPAPP	0.657 ± 0.014
PALVVALLASVL	0.505 ± 0.022
PCLPLTPMWTLF	0.678 ± 0.0076
PFFVLFSLAFLF	0.302 ± 0.04
PLATSLIGLFVV	0.522 ± 0.028
PLLLFFFPRLLF	0.535 ± 0.027
PLLPTPLTAPPP	0.642 ± 0.031
PLLSATLTRRLA	0.684 ± 0.0075
PLTSPLLFPVFA	0.269 ± 0.024
PPPLPFPTPPPS	0.644 ± 0.044
PPSLPPLISFSP	0.656 ± 0.015
PPSRSPLPPLLH	0.687 ± 0.041
PPTPYPRFIFSF	0.647 ± 0.023
PPVPRLLPVLAP	0.379 ± 0.025
PRIVLFLRLHSN	0.512 ± 0.014
PRPETCHAVAVR	0.377 ± 0.034

Sequence	protein stability index
PRPLLSIYLRHA	0.599 ± 0.023
PRQPSKSNASNR	0.623 ± 0.023
PSIALVRLDVIC	0.32 ± 0.038
PSPFHSFYLRLI	0.579 ± 0.011
PSPPPYAPPIPA	0.44 ± 0.023
PSSPTPPPSSSP	0.664 ± 0.017
PSSVKLRVPSLY	0.623 ± 0.021
PTPSRPPHPPLR	0.633 ± 0.013
PVALYPVQAYLT	0.616 ± 0.012
PVFVLFFFSSLV	0.371 ± 0.028
PVLIFTWVIVCH	0.0676 ± 0.026
PVLPPPLLLCPC	0.119 ± 0.023
PWEYSSQLVLVI	0.179 ± 0.025
QCRLPRPPLSLP	0.651 ± 0.022
QPTGYFKLIIIK	0.3 ± 0.044
QPTPQSALAKHQ	0.6492 ± 0.005
RASLPSLFRSLL	0.804 ± 0.047
RAVLRFVMVWVL	0.466 ± 0.02
RCTLFVNPVCVH	0.242 ± 0.034
RGFIFFALWSFC	0.375 ± 0.031
RGFVVFCIPCFV	0.259 ± 0.042
RGKVVRGLLFCA	0.624 ± 0.031
RGPAYATCHLLC	0.645 ± 0.012
RIAIRSAVICAS	0.276 ± 0.028
RIIKIRAISINL	0.523 ± 0.023
RILKLPGHVNDV	0.654 ± 0.043

Sequence	protein stability index
RIRLYWVLRRLG	0.571 ± 0.023
RISGSIVVRKRS	0.642 ± 0.015
RLPRILVLVCLF	0.228 ± 0.04
RLPSSNVRYWVS	0.64 ± 0.012
RNDCAYHVLQIV	0.646 ± 0.015
RNTLLFKRILHI	0.637 ± 0.032
RPPSLVFLFLLT	0.441 ± 0.048
RRGGNIVWYCLV	0.634 ± 0.0066
RRIILAGLFLIS	0.437 ± 0.033
RRMGLRLFLLWM	0.534 ± 0.026
RSAVECRVTNIR	0.637 ± 0.018
RSFSKRSFMFLC	0.646 ± 0.018
RSNLSKSWHRIG	0.645 ± 0.028
RTMLSNRIKSFI	0.642 ± 0.014
RVRRETRLRQIA	0.65 ± 0.024
RVVNRWGVCFLG	0.639 ± 0.014
RVWTTVFIIRAT	0.493 ± 0.03
RYLHFASLLFAS	0.585 ± 0.012
SDVLVVWVFFCR	0.26 ± 0.032
SELLVHVVFWLA	0.289 ± 0.03
SFAVSSDYLFII	0.689 ± 0.034
SFCSFVFVTFVL	0.321 ± 0.044
SFFCFFLSFFYL	0.471 ± 0.011
SFFSQAIPILAA	0.152 ± 0.027
SFLCILIFPFFP	0.411 ± 0.02
SFSFRPCLLLFF	0.357 ± 0.036
